Molecular target: GST
Test: AUC; sedimentation velocity, 40 μM GST, 25 mM HEPES pH 7.4, 500 mM NaCl, 4°C

Sequence of GST (P08515 2-218): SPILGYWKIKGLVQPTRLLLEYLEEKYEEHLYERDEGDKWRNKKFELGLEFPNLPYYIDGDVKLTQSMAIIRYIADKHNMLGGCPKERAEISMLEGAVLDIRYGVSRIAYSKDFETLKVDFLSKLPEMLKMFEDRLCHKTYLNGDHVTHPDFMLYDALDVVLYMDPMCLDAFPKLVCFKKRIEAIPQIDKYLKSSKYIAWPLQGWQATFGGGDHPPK

stoichiometry N: 2
Substance: GST

From publication PMC7308479
